Experimental findings from patent US11191811B2, “Osteocalcin as a treatment for frailty associated with aging” (THE TRUSTEES OF COLUMBIA UNIVERSITY IN THE CITY OF NEW YORK, priority 2014, dated 2021) are described below.

A short description of the data set: Circulating osteocalcin and insulin levels after osteocalcin delivery (ELISA). In kind it is in vivo, mouse. As to the method: First, whether a single intraperitoneal injection of uncarboxylated mouse osteocalcin (osteocalcin) (100 ng/g of body weight) immediately before exercise would improve the exercise capacity of 3 month-old WT mice was tested.
To determine if osteocalcin has the same ability in older mice, 12 and 15 month-old mice that have low circulating osteocalcin levels were injected prior to running with 500 ng/g of body weight of osteocalcin in order to raise their circulating levels substantially. […] This was due to an increase in the phosphorylation of Akt, AMPK and HSL, as well as in glucose uptake, that occurred to a greater extent in oxidative muscles that express Gprc6a at the highest level, than in glycolytic muscles (FIG. 31C-F). Whether chronic delivery of osteocalcin through mini-pumps (90 ng/hour) for 28 days would increase muscle function in 9 month old mice that have the lowest circulating osteocalcin levels was also tested. […] This improved ability to perform exercise was caused in part by an increase in the expression in muscle of the fatty acid transporter Fatp1 and an activation of the Akt pathway (FIG. 31H-).
Serum osteocalcin, PINP, CTX, and insulin levels were measured using ELISA assays. Blood glucose level was measured using an Accu-Check glucometer. Urine 3-MHT was measured as previously described (Aranibar et al., 2011, Anal. Biochem. 410:84-91). […]
Background: ELISA stands for enzyme-linked immunosorbent assay.

For “uncarboxylated osteocalcin: Recombinant uncarboxylated mouse osteocalcin, bacterially produced, purified on glutathione beads and cleaved from the GST subunit by thrombin (YLGASVPSPDPLEPTREQCELNPACDELSDQYGLKTAYKRIYGITI)”, the circulating osteocalcin levels result is “increased” (3 month-old WT mice, single i.p. injection 100 ng/g) and “increased” (mini-pumps 90 ng/hour for 28 days, 9 month old mice).
